Source: patent publication US5576294A, “Human Kunitz-type protease inhibitor variant” (Novo Nordisk A/S, priority 1992, dated 1996)
Like-named read-outs stand apart in the source and are kept apart here.

Assays:
[1] = molecular target: Human neutrophil elastase (human) (UniProt P08246); test: apparent Ki; 4 nM neutrophil elastase, substrate M4765, 30 min preincubation, residual activity at 405 nm
[2] = molecular target: Human neutrophil elastase (human) (UniProt P08246)
Porcine trypsin = molecular target: T1, Porcine trypsin (Sus scrofa, UniProt P00761); test: Inhibition of serine proteinases: trypsin, peptidyl nitroanilide substrate, residual activity at 405 nm; format: biochemical; details: enzyme 10 nM, read-out: Apparent Ki (nM), Trypsin
T1 construct: purchased Novo Nordisk (Bagsvaerd, Denmark; the applicant itself)
T1 sequence (P00761 9-231): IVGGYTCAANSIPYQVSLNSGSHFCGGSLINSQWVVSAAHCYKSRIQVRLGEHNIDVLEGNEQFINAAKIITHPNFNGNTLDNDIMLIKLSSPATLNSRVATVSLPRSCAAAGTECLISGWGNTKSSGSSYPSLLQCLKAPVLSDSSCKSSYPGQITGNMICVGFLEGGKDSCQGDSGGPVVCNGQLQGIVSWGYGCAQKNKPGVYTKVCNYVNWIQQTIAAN
Description: (§1) KFN 1593 was purified from yeast culture medium as described in example 1. The concentration of KFN 1593 was determined using 1% E280 nm =8.3 and Mw =6500. Porcine trypsin was from Novo Nordisk (Bagsv.ae butted.rd, Denmark), bovine chymotrypsin (TLCK treated) and porcine pancreatic kallikrein was from Sigma Chemical Co (St. Louis, Mo., U.S.A.), human plasmin and human plasma kallikrein was from Kabi (Stockholm, Sweden).
(§2) Human neutrophil elastase and cathepsin G was purified from extracts of PMNs according to the method described by Baugh and Travis (Biochemistry 15 (1976) 836-843). Peptidyl nitroanilide substrates, S2251, S2586, S2266, S2302 were from Kabi (Stockholm, Sweden). M4765 and S7388 was from Sigma Chemical Co (St. Louis, Mo., U.S.A.) and FXa-1 was from NycoMed (Oslo, Norway).
(§3) Serine proteinases were incubated with various concentrations of KFN 1593 for 30 min. Substrate was then added and residual proteinase activity was measured at 405 nm.
(§4) The three TFPI (domain II) variants were purified from yeast culture medium. Their concentrations were determined from the absorbance at 214 nm using BPTI as a standard. The final concentration was determined by titration with trypsin. Porcine trypsin and human recombinant proteins, factor VIIa, activated protein C (ACP), and tPA were obtained from Novo Nordisk A/S (Bagsvaerd, Denmark), so was human thrombin. Bovine chymotrypsin and glandular kallikrein were obtained from Sigma Chemical Co. (St. Louis, Mo., U.S.A.). Truncated human recombinant tissue factor was obtained from Corvas (San Diego, Calif., U.S.A.). Human neutrophil cathepsin G was purified from extracts of PMNs according to the method described by Baugh and Travis (Biochemistry 15 (1976) 836-843). Human plasmin was from Kabi (Stockholm, Sweden), uPA was from Serono (Milan, Italy), human factor Xa was a gift from Dr. W. Kisiel (Albuquerque, N.M., U.S.A.), and human plasma kallikrein was a gift from Dr. I Schousboe (Copenhagen, Denmark).
(§5) Peptidyl nitroanilide substrates, S2251, S2302, S2266, S2586, S2288, S2444, S2366, and S2238 were from Kabi (Stockholm, Sweden). S7388 and M4765 were from Sigma Chemical Co. (St. Louis, Mo., U.S.A.) and FXa-1 was from Nycomed (Oslo, Norway).
(§6) Serine proteinases were incubated with various concentrations of Kunitz Domain variant for 30 min. Substrate (0.6 mM) was then added and residual proteinase activity was measured at 405 nm.
(§7) The four variants were purified from yeast culture medium. Their concentrations were determined from the absorbance at 214 nm using BTPI as a standard. Porcine trypsin was obtained from Novo Nordisk A/S (Bagsvaerd, Denmark, bovine chymotrypsin (TLCK treated) was obtained from Sigma Chemical Co. (St. Louis, Mo., U.S.A.). Truncated human recombinant tissue factor was obtained from Corvas (San Diego, Calif., U.S.A.). Human plasmin was from Kabi (Stockholm, Sweden). Human neutrophil cathepsin G and elastase were purified from extracts of PMNs according to the method described by Baugh and Travis (Biochemistry 15 (1976) 836-843).
(§8) Peptidyl nitroanilide substrates, S2251, S2586 were from Kabi (Stockholm, Sweden). S7388 and M4765 were from Sigma Chemical Co. (St. Louis, Mo., U.S.A.).
(§9) Serine proteinases were incubated with various concentrations of the variants for 30 min. Substrate ([…]) was then added and residual proteinase activity was measured at 405 nm.

Bovine chymotrypsin = molecular target: T2, Bovine chymotrypsin (Bos taurus, UniProt P00766); test: Inhibition of serine proteinases: chymotrypsin; format: biochemical; details: enzyme 2.5 nM, substrate S2586 0.6 mM, 30 min incubation
T2 construct: purchased Sigma Chemical Co. (St. Louis, Mo., U.S.A.)
Description: as §4, §5, §6, §7, §8, §9

Human plasmin = Human plasmin (Homo sapiens, UniProt P00747); test: Inhibition of serine proteinases: plasmin; format: biochemical; parameters: human plasmin and human plasma kallikrein was from Kabi (Stockholm, Sweden); purchased Kabi (Stockholm, Sweden); details: enzyme 4 nM, 30 min incubation, read-out: Apparent Ki (nM), Plasmin
Sequence of Human plasmin (P00747 581-810 limits assumed): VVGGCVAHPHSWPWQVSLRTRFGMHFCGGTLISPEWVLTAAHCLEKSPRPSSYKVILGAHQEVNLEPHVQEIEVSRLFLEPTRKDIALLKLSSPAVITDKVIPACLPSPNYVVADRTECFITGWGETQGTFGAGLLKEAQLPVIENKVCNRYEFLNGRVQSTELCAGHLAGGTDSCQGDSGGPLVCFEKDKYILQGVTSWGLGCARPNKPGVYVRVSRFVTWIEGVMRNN
Sequence of Human plasmin (P00747 97-580 limits assumed): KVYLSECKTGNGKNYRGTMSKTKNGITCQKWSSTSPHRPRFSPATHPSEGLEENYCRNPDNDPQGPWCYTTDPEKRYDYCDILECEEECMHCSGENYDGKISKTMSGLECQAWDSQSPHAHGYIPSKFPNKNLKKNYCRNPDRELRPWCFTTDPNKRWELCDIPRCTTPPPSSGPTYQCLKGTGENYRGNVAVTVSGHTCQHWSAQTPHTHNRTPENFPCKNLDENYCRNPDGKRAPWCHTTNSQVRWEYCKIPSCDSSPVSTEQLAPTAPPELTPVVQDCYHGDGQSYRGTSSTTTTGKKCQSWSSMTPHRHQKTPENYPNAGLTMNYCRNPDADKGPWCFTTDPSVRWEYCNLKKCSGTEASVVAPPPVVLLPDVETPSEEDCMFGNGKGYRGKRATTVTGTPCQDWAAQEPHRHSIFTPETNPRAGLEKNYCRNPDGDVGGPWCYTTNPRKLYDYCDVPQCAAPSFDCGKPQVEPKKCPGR
Description: as §1, §2, §3, §4, §5, §6, §7, §8, §9

[3] = molecular target: T3, Human neutrophil elastase (Homo sapiens, UniProt P08246); test: Inhibition of serine proteinases: neutrophil elastase; format: biochemical; details: Example 9; for Ki: enzyme 4 nM, substrate M4765, 30 min incubation, read-out: Apparent Ki (nM), N. elastase
T3 construct: Human neutrophil elastase and cathepsin G was purified from extracts of PMNs; from tissue; host or cells: extracts of human polymorphonuclear leukocytes (PMNs), method of Baugh and Travis
T3 sequence (P08246 30-267): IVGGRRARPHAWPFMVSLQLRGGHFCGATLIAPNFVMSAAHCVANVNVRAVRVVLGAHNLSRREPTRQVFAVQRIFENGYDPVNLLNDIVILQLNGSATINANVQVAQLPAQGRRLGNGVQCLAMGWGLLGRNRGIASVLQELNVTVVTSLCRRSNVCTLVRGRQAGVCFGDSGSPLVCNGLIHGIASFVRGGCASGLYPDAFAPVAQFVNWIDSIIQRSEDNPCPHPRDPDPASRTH
Description: as §1, §2
Serine proteinases were incubated with various concentrations of KFN 1593 for 30 min. Substrate was then added and residual proteinase activity was measured at 405 nm. […]
as §7, §8, §9

[4] = molecular target: T4, Human neutrophil cathepsin G (Homo sapiens, UniProt P08311); test: Inhibition of serine proteinases: neutrophil cathepsin G; format: biochemical; details: Example 9; enzyme 50 nM, substrate S7388, 30 min incubation; read-out: Apparent Ki (nM), N. cathepsin G
T4 construct: Human neutrophil cathepsin G was purified from extracts of PMNs; from tissue; host or cells: extracts of human polymorphonuclear leukocytes (PMNs), method of Baugh and Travis
T4 sequence (P08311 21-255): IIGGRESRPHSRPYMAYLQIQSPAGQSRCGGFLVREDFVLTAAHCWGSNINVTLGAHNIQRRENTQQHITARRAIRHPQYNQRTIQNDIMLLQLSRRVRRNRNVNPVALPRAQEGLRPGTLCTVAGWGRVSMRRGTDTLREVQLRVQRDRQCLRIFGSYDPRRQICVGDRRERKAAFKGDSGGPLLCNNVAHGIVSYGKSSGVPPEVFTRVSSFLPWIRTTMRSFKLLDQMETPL
Description: as §1, §2, §3, §4, §5, §6, §7, §8, §9

[5] = molecular target: bovine chymotrypsin (TLCK treated) (bovine) (UniProt P00766)
[6] = molecular target: bovine chymotrypsin (TLCK treated) (bovine) (UniProt P00766); test: apparent Ki; 2.5 nM chymotrypsin, substrate S2586, 30 min preincubation, residual activity at 405 nm
granulocyte elastase = molecular target: T5, granulocyte elastase (Homo sapiens, UniProt P08246); details: Wenzel and Tschesche 1981; cited from earlier work
T5 sequence (P08246 30-267): T3 sequence (P08246 30-267)

[7] = molecular target: T6, glandular kallikrein (porcine pancreatic kallikrein) (Sus scrofa, UniProt P00752); test: Inhibition of serine proteinases: glandular kallikrein; format: biochemical; details: Example 8; enzyme 1 U/ml, substrate S2266 0.6 mM, 30 min incubation; read-out: Apparent Ki (nM), Gl. kallikrein
T6 construct: purchased Sigma Chemical Co (St. Louis, Mo., U.S.A.)
T6 sequence (P00752 8-246): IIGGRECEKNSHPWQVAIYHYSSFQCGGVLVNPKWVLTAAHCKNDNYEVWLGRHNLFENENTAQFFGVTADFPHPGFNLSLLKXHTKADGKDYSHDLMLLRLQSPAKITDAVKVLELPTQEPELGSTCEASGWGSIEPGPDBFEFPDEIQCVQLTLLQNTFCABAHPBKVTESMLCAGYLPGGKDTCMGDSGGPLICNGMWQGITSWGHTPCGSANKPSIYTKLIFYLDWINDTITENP
Description: as §1, §2, §3, §4, §5, §6

plasma kallikrein = plasma kallikrein (Homo sapiens, UniProt P03952); test: Inhibition of serine proteinases: plasma kallikrein; format: biochemical; details: Example 8; enzyme 3 nM, substrate S2302 0.6 mM, 30 min incubation; read-out: Apparent Ki (nM), Pl. kallikrein
Sequence of plasma kallikrein (P03952 391-638 limits assumed): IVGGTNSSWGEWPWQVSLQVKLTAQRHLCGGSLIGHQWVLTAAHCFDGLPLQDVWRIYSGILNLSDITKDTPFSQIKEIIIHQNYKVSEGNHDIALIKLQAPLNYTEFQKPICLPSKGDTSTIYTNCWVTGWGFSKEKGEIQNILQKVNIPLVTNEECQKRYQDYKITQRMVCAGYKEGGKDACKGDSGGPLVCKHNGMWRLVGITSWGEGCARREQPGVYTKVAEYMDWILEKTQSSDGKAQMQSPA
Sequence of plasma kallikrein (P03952 20-390 limits assumed): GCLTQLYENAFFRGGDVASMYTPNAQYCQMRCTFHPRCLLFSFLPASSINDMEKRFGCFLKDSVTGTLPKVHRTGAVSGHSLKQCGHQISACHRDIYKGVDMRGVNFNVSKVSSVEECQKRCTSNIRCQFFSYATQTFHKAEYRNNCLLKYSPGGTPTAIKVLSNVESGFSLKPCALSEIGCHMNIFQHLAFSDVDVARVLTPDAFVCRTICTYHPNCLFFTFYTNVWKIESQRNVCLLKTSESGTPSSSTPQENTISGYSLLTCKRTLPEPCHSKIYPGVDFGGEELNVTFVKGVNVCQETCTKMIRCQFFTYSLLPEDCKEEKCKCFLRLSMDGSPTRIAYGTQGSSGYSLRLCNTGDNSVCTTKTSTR
Description: as §1, §2, §3, §4, §5, §6

[8] = Example 9, substrate S2251, 30 min incubation
[9] = Example 9, read-out: Apparent Ki (nM), Chymotrypsin

Ki (Porcine trypsin; [8]) [nM] | Ki (Bovine chymotrypsin; [9]) [nM] | Ki (Human plasmin; Example 9) [nM] | neutrophil elastase inhibition (in words) [3] | Ki [3] [nM] | Ki [4] [nM] | Substance | also measured
> 1000 | < 5 | > 1000 | strong inhibitors | 2.2 | > 1000 | [R15L]-TFPI-2 [KFN 1928] | 
> 1000 | > 100 | > 1000 | strong inhibitors | 0.46 | > 1000 | [R15V, G16A]-TFPI-2 [KFN 1897] | 

Continued, substance first:

Substance | Ki (Porcine trypsin; [8]) [nM] | Ki (Bovine chymotrypsin; [9]) [nM] | Ki (Human plasmin; Example 9) [nM] | neutrophil elastase inhibition (in words) [3] | Ki [3] [nM] | Ki [4] [nM] | also measured
[R15V]-TFPI-2 from yeast strain KFN-1898 (from UniProt P10646) |  |  |  |  |  |  | Ki [1]: 0.35 nM; apparent Ki [2]: 0.35 nM
[R15V]-TFPI-2 [KFN 1898] | > 1000 | > 100 | > 1000 | strong inhibitors | 0.35 | > 1000 | 
[R15L]-TFPI-2 from yeast strain KFN-1928 (from UniProt P10646) |  |  |  |  |  |  | Ki [1]: 2.2 nM; apparent Ki [5]: < 5 nM; residual proteinase activity at 405 nm (apparent Ki) [2]: 2.2 nM; Ki [6]: < 5 nM
aprotinin (1-58, Ala15) |  |  |  |  |  |  | effect on granulocyte elastase (in words) (granulocyte elastase): weak effect
[R15K, G16A, Y17R, T19I]-TFPI-2 [KFN 1811] |  |  |  |  |  |  | Ki [7]: > 100 nM; Ki (Porcine trypsin; Example 8, substrate S2251 0.6 mM, 30 min incubation): < 1 nM; Ki (Bovine chymotrypsin; Example 8, read-out: Apparent Ki (nM), chymotrypsin): 10 nM; Ki (plasma kallikrein): > 100 nM; Ki (Human plasmin; Example 8, substrate S2251 0.6 mM): 3 nM
[R15L, G16A]-TFPI-2 [KFN 1893] | > 1000 | < 5 | > 1000 | strong inhibitors | 0.23 | > 1000 | 
